Laboratory results: doi:10.1101/559120

Molecular target: branched-chain amino acid aminotransferase from Pseudomonas sp. (Pseudomonas sp.)
Assay: crystal structure

How did the stoichiometry N turn out when “branched-chain amino acid aminotransferase from Pseudomonas sp. (enzyme)” was run?
Its stoichiometry N is 2.
